These results are taken from article PMC10397319, “The phosphatidylinositol (4,5)-bisphosphate-Rab35 axis regulates migrasome formation” (Cell Research, 2023).

This assay has as its target T1, His-GFP-Rab35-Q67L (rat, UniProt Q5U316 1-201, Q67L).
T1 construct: Rab35, cloned from rat cDNA, constitutively active mutant Q67L; the methods describe only the WT purification; also called constitutively active Rab35-Q67L; active Rab35; source: cloned into pET21b, purified; not shown: GFP, N-terminal, kept
Put plainly: dual-color fluorescence cross-correlation spectroscopy (dcFCCS); both free in solution; 100 nM GFP-Rab35 mixed with 500 nM Cy5-ITGα5-cyto; 20 mM HEPES pH 7.5, 100 mM NaCl, 2 mM MgCl2, 0.1% BSA; 25 °C; 5 min recording, three repeats. To be noted: both partners purified.

Ends that are not written are not given here.

T1 sequence (Q5U316 whole entry Q67L): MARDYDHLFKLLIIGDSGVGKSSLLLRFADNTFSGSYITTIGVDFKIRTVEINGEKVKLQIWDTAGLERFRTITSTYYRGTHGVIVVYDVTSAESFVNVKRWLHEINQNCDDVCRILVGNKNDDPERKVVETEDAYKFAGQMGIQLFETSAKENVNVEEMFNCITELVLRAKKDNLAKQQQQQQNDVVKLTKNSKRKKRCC

B1: Cy5-ITGα5-cyto-WT (peptide)
peptide: YKLGFFKRSLPYGTAMEKAQLKPPATSDA
modifications: also: Sulfo-Cy5 label, site not given here
notes: also called cytosolic domain of integrin α5; WT peptide; source: synthetic peptide (Synpeptide Co., Ltd.), labelled with Sulfo-Cy5 NHS ester
Take B1: the binding result is “binds”.
